T1: wild-type Cerberus Fc fusion protein (wtCer-Fc) (human, UniProt O95813 18-267)
T1 sequence (looked up): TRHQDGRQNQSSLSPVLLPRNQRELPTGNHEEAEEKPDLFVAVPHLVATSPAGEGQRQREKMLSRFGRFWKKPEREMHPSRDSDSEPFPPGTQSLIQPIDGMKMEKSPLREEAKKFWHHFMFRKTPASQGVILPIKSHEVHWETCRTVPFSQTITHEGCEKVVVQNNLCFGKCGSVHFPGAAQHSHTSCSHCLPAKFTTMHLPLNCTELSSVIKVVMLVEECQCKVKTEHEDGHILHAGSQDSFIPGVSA

T2: mutant Cerberus Fc fusion protein (mutCer-Fc) (human, UniProt O95813 18-267, Arg82Gly | Cys206Ala)
T2 sequence (looked up): T1 sequence (looked up) with R65G, C189A

B1: Recombinant human BMP-6 (ligand, UniProt P22004 375-513, looked up)
chain: SASSRRRQQSRNRSTQSQDVARVSSASDYNSSELKTACRKHELYVSFQDLGWQDWIIAPKGYAANYCDGECSFPLNAHMNATNHAIVQTLVHLMNPEYVPKPCCAPTKLNAISVLYFDDNSNVILKKYRNMVVRACGCH
B2: wild-type Cerberus, Fc free (wtCer) (natural protein, human, UniProt O95813 18-267, looked up)
chain: T1 sequence (looked up)
B3: mutant Cerberus, Fc free (mutCer) (natural protein, human, UniProt O95813 18-267, looked up)
chain: T1 sequence (looked up) with R65G, C189A
B4: BMPRII-Fc (Fc fusion, human, UniProt Q13873 27-136, looked up)
chain: SQNQERLCAFKDPYQQDLGIGESRISHENGTILCSKGSTCYGLWEKSKGDINLVKQGCWSHIGDPQECHYEECVVTTTPPSIQNGTYRFCCCSTDLCNVNFTENFPPPDT
B5: Recombinant human Activin B (ligand, UniProt P09529 293-407, looked up)
chain: GLECDGRTNLCCRQQFFIDFRLIGWNDWIIAPTGYYGNYCEGSCPAYLAGVPGSASSFHTAVVNQYRMRGLNPGTVNSCCIPTKLSTMSMLYFDDEYNIVKRDVPNMIVEECGCA
B6: Recombinant human BMP-7 (ligand, UniProt P18075 293-431, looked up)
chain: STGSKQRSQNRSKTPKNQEALRMANVAENSSSDQRQACKKHELYVSFRDLGWQDWIIAPEGYAAYYCEGECAFPLNSYMNATNHAIVQTLVHFINPETVPKPCCAPTQLNAISVLYFDDSSNVILKKYRNMVVRACGCH
B7: Recombinant human Nodal (ligand, UniProt Q96S42 238-347, looked up)
chain: HHLPDRSQLCRKVKFQVDFNLIGWGSWIIYPKQYNAYRCEGECPNPVGEEFHPTNHAYIQSLLKRYQPHRVPSTCCAPVKTKPLSMLYVDNGRVLLDHHKDMIVEECGCL

For data set [1], the target named is short-form Cerberus Fc fusion protein (CerS-Fc) (human) (UniProt O95813). The experiment in a line: SPR. (In general: SPR reads the build-up and loss of mass on a sensor chip optically.)
Data set [2] concerns the target short-form Cerberus, Fc free (CerS) (human) (UniProt O95813). The experiment in a line: cross-linking.
In data set [3] the target is Recombinant human Activin B (human) (UniProt P09529). The experiment in a line: SPR.
Data set [4] shares this target. The experiment in a line: SPR. This is another data set of the same source.
Data set [5] concerns the target T1, wild-type Cerberus Fc fusion protein …. Description: SPR.
Data set [6] has as its target T2, mutant Cerberus Fc fusion protein …. Description: SPR.
For data set [7], the target named is B5. Description: SPR.
Data set [8] deals with B1. Description: SPR.
The target in data set [9] is B5. The experiment in a line: SPR. The source holds these as a separate data set.
The target in data set [10] is B1. The experiment in a line: SPR. The source holds these as a separate data set.
The data set “SEC” concerns the molecule itself. The experiment in a line: SEC. A general note: Size exclusion chromatography separates by hydrodynamic size, large species first.
Data set [11] concerns the target B5. The experiment in a line: SPR. The source holds these as a separate data set.
Data set [12] concerns the target B1. The experiment in a line: SPR. This is another data set of the same source.
In the data set “BMPRII-Fc” the target is B4. Description: SPR.

Changes are numbered by the printed parent chain. Like-named read-outs stand apart in the source and are kept apart here.

The term Kd denotes the equilibrium constant for the complex coming apart. Lower therefore signals tighter binding. What is called koff is the first-order rate constant of dissociation. Read a high koff as fast dissociation. In general, kon refers to the second-order rate constant of association. A lower kon goes with slow association. What is called stoichiometry N is the number of molecules, sites or subunits per partner or assembly. As a reminder, the IC50 is the midpoint of a concentration-inhibition curve.

In data set [1], “Recombinant human BMP-7 (from UniProt P18075 293-431) (ligand)” displayed a Kd of 15.6 nM, an off-rate constant (koff) of 0.0021 s⁻¹ and a kon of 140000 M⁻¹ s⁻¹.

Regarding “Recombinant human BMP-6 (from UniProt P22004 375-513) (ligand)”, in data set [1], the Kd is 15.2 nM and the koff came to 0.0012 s⁻¹.

“short-form Cerberus, Fc free (CerS) (from UniProt O95813 18-267) (domain or fragment)” had a stoichiometry N in [2] of 2. Further, in data set [3], the IC50 was 261 nM and the percent reduction of Activin B binding to ActRIIA at 50 nM was 10%. Moreover, the IC50 in data set [4] was found to be 28.4 nM.

With B1, in data set [5], the affinity, expressed as Kd, was 19.1 ± 2.5 nM; the koff was found to be 0.0011 s⁻¹; the kon amounted to 55000 M⁻¹ s⁻¹. In [6], this molecule displayed a Kd of 14.7 ± 3.6 nM, a koff of 0.001 s⁻¹ and a kon of 70000 M⁻¹ s⁻¹.

As to B2, the IC50 in data set [7] was found to be 26.2 ± 1.7 nM; with Recombinant human BMP-6 [8], 319 ± 53.4 nM; in [9], 14.9 ± 4.2 nM; in the data set with Recombinant human BMP-6 [10] it was 156 ± 9.2 nM.

Turning to B3, the IC50 in data set [7] came out at 40.1 ± 2.5 nM; with Recombinant human BMP-6 [8], 350 ± 96.1 nM; in data set [9] it was 7.4 ± 1.1 nM; in the data set with Recombinant human BMP-6 [10] it was 48.3 ± 3.5 nM. The “stoichiometry N” value in the data set “SEC” is 2.

Take B4: the binding result (in data set [11]; in the data set with Recombinant human BMP-6 [12]) was “binds” in each case.

For the molecule B5, in data set [5], the Kd is 0.096 ± 0.01 nM, the koff came out at 0.00022 s⁻¹ and the kon is 2.3e+06 M⁻¹ s⁻¹. Besides, in [6], the affinity, expressed as Kd, was 0.016 ± 0.003 nM; the koff was determined as 3.1e-05 s⁻¹; the kon was 2e+06 M⁻¹ s⁻¹.

For the molecule B6, in data set [5], the equilibrium dissociation constant (Kd) amounted to 17.3 ± 0.8 nM, the koff is 0.0028 s⁻¹ and the kon amounted to 160000 M⁻¹ s⁻¹. In [6], this molecule displayed a Kd of 9.8 ± 0.9 nM, a koff of 0.0012 s⁻¹ and a kon of 130000 M⁻¹ s⁻¹.

On to B7, for which the binding result with BMPRII-Fc is listed as “binds”.

(Values after PMC7739268 (Journal of molecular biology, 2016).)
